# Test results published in patent US8586570B2, “Sox-based kinase sensor” (Massachusetts Institute of Technology, priority 2006, dated 2013).
# Experiments:
# Experiment in all cases: Cross-reactivity of PKCα-S10 with PKC isozymes
# Format in all cases: biochemical
# Settings in all cases: peptide 1 μM, isozyme 2 ng
# PKCβI = PKCβI (Homo sapiens, UniProt P05771)
# Description: (§1) With the kinetic parameters at hand it is possible to test the cross-reactivity of PKCα-S10 with PKC isozymes. In 12 separate reactions PKCα-S10 (1 μM) is subjected to phosphorylation with PKCα, PKCβI, PKCβII, PKCγ, PKCδ, PKCε, PKCζ, PKCη, PKCθ, PKCι, PKCμ and PKCν (2 ng).
# PKCβII = PKCβII (Homo sapiens, UniProt P05771)
# Description: as §1
# PKCγ = PKCγ (Homo sapiens, UniProt P05129)
# Description: as §1
# PKCε = molecular target: T1, PKCε (Homo sapiens, UniProt Q02156)
# T1 sequence (Q02156 1-737): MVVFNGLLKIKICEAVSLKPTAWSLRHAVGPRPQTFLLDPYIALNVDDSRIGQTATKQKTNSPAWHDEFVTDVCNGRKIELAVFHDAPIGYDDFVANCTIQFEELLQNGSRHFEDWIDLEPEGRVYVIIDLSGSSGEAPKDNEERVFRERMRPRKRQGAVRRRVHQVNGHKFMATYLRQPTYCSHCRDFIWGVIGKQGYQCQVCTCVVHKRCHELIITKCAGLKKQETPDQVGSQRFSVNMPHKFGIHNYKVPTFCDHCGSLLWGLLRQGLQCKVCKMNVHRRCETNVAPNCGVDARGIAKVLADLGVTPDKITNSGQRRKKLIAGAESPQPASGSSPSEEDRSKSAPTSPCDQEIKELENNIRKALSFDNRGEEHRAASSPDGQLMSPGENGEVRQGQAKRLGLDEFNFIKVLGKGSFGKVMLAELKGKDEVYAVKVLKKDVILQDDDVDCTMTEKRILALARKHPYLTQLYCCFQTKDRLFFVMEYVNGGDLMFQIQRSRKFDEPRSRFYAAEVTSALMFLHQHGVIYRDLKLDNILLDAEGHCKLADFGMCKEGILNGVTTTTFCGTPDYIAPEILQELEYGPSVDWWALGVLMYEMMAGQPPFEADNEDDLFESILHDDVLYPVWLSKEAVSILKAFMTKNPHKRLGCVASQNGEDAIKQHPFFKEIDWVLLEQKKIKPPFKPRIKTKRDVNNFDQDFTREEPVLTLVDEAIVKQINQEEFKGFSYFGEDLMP
# Description: as §1
# PKCη = PKCη (Homo sapiens, UniProt P24723)
# Description: as §1
# PKCθ = PKCθ (Homo sapiens, UniProt Q04759)
# Description: as §1
# PKCι = molecular target: T2, PKCι (Homo sapiens, UniProt P41743)
# T2 sequence (P41743 1-596): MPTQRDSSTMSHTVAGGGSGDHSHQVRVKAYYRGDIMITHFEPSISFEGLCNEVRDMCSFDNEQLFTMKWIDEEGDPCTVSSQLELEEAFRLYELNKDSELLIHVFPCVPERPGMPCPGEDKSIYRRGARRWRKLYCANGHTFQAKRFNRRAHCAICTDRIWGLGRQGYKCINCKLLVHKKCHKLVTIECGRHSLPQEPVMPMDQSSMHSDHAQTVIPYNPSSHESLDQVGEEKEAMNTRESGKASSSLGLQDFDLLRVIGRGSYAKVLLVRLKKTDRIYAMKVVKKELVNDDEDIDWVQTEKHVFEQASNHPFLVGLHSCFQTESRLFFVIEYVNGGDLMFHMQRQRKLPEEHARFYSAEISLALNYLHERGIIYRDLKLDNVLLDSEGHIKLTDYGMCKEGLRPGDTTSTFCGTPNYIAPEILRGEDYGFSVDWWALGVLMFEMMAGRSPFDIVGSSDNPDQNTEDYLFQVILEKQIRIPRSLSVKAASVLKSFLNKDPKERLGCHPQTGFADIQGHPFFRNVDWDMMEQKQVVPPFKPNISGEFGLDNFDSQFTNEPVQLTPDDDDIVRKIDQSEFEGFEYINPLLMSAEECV
# Description: as §1
# PKCν = molecular target: T3, PKCν (Homo sapiens, UniProt O94806)
# T3 sequence (O94806 1-890): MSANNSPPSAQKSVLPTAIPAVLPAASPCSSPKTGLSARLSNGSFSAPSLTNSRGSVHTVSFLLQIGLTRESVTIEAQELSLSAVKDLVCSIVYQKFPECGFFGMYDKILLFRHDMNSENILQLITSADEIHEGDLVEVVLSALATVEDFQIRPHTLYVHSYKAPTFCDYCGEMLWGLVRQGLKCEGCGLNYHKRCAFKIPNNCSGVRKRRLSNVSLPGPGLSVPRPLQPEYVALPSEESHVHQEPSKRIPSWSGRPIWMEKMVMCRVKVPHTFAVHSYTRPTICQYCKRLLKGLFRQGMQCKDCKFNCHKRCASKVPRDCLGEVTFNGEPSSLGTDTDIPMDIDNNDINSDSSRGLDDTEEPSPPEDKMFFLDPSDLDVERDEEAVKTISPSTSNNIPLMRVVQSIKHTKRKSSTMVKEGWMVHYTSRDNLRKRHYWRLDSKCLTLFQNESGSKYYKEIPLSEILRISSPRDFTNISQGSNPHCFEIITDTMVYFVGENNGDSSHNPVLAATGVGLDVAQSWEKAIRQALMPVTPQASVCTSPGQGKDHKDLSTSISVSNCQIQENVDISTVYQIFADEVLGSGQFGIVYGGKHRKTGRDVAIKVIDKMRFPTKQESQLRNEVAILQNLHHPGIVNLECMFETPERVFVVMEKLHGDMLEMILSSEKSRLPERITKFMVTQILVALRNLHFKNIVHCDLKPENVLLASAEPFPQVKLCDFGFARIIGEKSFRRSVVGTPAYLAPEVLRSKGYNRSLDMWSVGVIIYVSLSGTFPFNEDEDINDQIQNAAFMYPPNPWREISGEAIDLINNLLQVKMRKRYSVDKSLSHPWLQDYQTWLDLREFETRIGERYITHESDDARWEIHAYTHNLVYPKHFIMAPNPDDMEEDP
# Description: as §1
# Chain of PKCβI (P05771 whole entry): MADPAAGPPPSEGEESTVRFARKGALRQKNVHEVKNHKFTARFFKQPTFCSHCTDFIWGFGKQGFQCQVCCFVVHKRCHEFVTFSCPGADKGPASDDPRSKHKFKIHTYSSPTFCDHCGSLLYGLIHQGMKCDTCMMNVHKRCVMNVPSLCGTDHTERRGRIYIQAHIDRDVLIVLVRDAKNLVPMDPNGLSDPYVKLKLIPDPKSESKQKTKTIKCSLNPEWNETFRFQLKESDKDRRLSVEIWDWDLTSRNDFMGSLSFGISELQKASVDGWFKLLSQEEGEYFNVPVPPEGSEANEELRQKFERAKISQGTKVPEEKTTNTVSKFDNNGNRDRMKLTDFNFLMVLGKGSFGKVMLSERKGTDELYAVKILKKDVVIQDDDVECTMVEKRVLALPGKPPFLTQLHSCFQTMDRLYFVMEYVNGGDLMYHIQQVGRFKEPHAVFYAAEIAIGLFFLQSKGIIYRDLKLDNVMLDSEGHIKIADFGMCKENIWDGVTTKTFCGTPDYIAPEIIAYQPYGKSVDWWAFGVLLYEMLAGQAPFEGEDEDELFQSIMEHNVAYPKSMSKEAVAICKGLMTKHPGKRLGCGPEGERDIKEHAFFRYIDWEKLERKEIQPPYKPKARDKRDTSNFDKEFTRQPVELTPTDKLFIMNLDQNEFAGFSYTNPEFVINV
# Chain of PKCθ (Q04759 whole entry): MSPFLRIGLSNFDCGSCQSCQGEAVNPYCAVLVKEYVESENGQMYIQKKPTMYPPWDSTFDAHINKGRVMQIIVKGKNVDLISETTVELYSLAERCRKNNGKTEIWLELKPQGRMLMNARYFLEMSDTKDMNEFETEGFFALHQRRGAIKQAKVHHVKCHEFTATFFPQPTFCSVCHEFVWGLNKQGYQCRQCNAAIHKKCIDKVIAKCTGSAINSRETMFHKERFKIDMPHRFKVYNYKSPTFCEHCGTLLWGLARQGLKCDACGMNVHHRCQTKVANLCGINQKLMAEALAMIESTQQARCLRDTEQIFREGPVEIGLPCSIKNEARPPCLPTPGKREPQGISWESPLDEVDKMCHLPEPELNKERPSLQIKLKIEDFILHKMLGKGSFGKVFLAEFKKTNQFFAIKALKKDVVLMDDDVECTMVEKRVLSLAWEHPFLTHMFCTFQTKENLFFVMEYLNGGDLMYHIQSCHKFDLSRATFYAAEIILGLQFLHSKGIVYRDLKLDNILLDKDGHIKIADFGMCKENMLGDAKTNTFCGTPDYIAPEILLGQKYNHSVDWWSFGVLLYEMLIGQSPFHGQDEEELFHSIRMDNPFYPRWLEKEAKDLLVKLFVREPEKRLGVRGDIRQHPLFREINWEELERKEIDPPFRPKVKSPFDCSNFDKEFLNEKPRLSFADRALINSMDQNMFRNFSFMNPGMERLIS
# Chain of PKCβII (P05771 1-673 isoform P05771-2): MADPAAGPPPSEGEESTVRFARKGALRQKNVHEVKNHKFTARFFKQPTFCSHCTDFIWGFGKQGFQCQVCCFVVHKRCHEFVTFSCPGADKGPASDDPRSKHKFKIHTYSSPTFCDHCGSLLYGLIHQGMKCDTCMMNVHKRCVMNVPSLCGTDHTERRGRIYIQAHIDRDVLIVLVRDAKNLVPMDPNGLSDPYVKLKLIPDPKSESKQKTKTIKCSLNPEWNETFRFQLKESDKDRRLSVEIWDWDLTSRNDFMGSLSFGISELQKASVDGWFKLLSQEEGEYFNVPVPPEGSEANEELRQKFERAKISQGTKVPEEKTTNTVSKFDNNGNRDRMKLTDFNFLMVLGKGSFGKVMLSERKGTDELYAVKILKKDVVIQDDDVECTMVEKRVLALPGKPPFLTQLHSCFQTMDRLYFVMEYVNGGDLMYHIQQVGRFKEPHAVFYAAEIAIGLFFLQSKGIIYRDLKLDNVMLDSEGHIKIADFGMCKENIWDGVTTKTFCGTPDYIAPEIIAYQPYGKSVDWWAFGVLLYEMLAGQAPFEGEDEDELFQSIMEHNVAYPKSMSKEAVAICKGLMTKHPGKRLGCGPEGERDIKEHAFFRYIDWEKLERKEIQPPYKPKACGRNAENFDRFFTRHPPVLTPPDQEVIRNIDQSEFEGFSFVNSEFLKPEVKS
# Chain of PKCη (P24723 whole entry): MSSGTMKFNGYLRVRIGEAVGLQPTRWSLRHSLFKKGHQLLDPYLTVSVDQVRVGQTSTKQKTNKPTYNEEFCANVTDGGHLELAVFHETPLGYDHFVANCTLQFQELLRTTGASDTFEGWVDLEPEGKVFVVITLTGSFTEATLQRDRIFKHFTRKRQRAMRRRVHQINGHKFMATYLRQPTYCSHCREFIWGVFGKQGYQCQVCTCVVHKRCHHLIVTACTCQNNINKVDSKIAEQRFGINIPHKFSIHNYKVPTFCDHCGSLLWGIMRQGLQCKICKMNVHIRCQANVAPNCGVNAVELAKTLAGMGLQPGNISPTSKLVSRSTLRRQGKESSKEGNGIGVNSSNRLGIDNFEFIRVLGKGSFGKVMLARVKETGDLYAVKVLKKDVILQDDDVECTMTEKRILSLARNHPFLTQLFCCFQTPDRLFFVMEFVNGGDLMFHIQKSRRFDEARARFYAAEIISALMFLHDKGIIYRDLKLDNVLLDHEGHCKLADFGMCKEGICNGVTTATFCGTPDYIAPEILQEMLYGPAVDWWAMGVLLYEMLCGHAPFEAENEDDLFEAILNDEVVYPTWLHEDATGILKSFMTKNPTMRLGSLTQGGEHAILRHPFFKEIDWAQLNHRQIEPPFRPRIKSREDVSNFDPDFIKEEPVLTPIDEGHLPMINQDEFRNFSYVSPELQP
substance,measurement,setting,value
"Ac-RRR-C(Sox)-ASFRRKA-CONH2 [PKCα-S10(P10), Sox chemosensor with extended recognition domain for PKCα]",activity of isozyme on peptide compared with PKCα,PKCβI,slightly more active than PKCα
same,activity of isozyme on peptide compared with PKCα,PKCβII,comparable activities to that of PKCα
same,activity of isozyme on peptide compared with PKCα,PKCγ,comparable activities to that of PKCα
same,activity of isozyme on peptide,PKCε,very little activity
same,activity of isozyme on peptide,PKCη,very little activity
same,activity of isozyme on peptide compared with PKCα,PKCθ,slightly more active than PKCα
same,activity of isozyme on peptide,PKCι,very little activity
same,activity of isozyme on peptide,PKCν,no activity
